B1: SPIN (Staphylococcal Peroxidase INhibitor) from S. aureus strain Newman (natural protein)
chain: KVYSQNGLVLHDDANFLEHELSYIDVLLDKNADQATKDNLRSYFADKGLHSIKDIINKAKQDGFDVSKYEHVK

Target: Native human myeloperoxidase (MPO) isolated from purulent sputum (human) (UniProt P05164)
Experiment: SPR

Chain of UniProt P05164 (P05164 165-745): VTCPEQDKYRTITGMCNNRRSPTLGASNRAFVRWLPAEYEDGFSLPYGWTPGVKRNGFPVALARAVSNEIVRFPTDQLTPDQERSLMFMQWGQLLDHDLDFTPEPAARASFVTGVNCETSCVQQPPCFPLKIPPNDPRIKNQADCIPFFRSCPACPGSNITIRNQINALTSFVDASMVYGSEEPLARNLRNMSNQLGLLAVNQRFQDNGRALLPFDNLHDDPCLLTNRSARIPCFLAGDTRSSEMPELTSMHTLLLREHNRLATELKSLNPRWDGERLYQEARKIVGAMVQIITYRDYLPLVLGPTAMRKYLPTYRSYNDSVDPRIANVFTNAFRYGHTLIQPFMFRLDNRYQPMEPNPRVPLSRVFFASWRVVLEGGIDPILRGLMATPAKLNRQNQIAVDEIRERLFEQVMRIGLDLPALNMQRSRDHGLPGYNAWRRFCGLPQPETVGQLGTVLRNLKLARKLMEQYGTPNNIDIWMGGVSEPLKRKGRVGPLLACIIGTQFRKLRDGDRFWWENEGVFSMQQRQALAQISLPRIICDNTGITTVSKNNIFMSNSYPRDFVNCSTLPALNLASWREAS

Point of comparison: “SPIN-schleiferi (SPIN homolog from S. schleiferi) (natural protein)”, Kd 230 nM. Against it:
- SPIN-agnetis (SPIN homolog from S. agnetis) (natural protein) — 5.5-fold lower, 41.8 nM
- SPIN-delphini (SPIN from Staphylococcus delphini) (natural protein) — within 1.5-fold, 310 nM
- SPIN-intermedius (SPIN homolog from S. intermedius) (natural protein) — 4.3-fold higher, 984 nM
- B1 — 14-fold lower, 15.9 nM

Point of comparison: “SPIN-schleiferi (SPIN homolog from S. schleiferi) (natural protein)”, koff 0.00252 s⁻¹. Against it:
- SPIN-agnetis (SPIN homolog from S. agnetis) (natural protein) — within 1.5-fold, 0.00236 s⁻¹
- SPIN-delphini (SPIN from Staphylococcus delphini) (natural protein) — within 1.5-fold, 0.00334 s⁻¹
- SPIN-intermedius (SPIN homolog from S. intermedius) (natural protein) — within 1.5-fold, 0.00334 s⁻¹
- B1 — within 1.5-fold, 0.00316 s⁻¹

Point of comparison: “SPIN-agnetis (SPIN homolog from S. agnetis) (natural protein)”, kon 56400 M⁻¹ s⁻¹. Against it:
- SPIN-delphini (SPIN from Staphylococcus delphini) (natural protein) — 5.2-fold lower, 10800 M⁻¹ s⁻¹
- SPIN-intermedius (SPIN homolog from S. intermedius) (natural protein) — 16-fold lower, 3500 M⁻¹ s⁻¹
- SPIN-schleiferi (SPIN homolog from S. schleiferi) (natural protein) — 5-fold lower, 11200 M⁻¹ s⁻¹
- B1 — 3.6-fold higher, 201000 M⁻¹ s⁻¹

Reference: article PMC5899673
